Assay results reported in paper PMC11968277, “Sulfoglycolysis sustains Eubacterium rectale in low-fiber diets” (The Journal of Biological Chemistry, 2025).

B1: SftG (E. rectale SftG SQase) (Agathobacter rectalis ATCC 33656) (protein)
chain: MQIKVNDNEFQLFVGEKRILEHSKERPMIYVGVGQEDVDMYRGNFKITDYVTERFPLKLTDVIQTADTVRLCFESYIIAKIKCDENLCTIDFEQKDDRINRFWFRVAADKEEKCYGCGEQMSYFNLRGRNFPIWTSEPGVGRDKTTYVTWRSDVENKAGGDYYNTNYPQPTFVSTNKYYLHVDSTAYADFDFRNDSFHELQIWEVPKQIRIECADTYLKLLERITTYFGRQPKLPDWVYNGLIIGVQGGNERSFGLLDKTLDRNIKVAGIWCQDWCGKRVTSFGKRLQWDWKYHKEMYPDLPKKIKEINAKGIKFLGYVNPYLVNDGELYKEGKEKGYFATKADGSDYLVDFGEFYCGVVDLTNPEAFEWFKDIIKEYTLGIGIDGWMADFGEYLPTDDICLYSGKSPMIEHNHWPVLWAKCNYEAVKESGKLGDVVYFMRAGGAGSQKYCTLLWAGDQSVDFTIHDGLASVICGALSAGMMGCGLTHSDIGGYTSLFDNTRTKELFLRWAEMAMFTPFMRTHEGNRPDTNFQYYDDEDTMERLARLVDVYTMLAPYTKTLVEENADSGHPVQRPLFMHYESDAKAYDIQYEYLFGRDMLIAPVYEQDKHEWDVYLPQDEWVHLWTGEEYHGGEITVSAELGYTPAFYRKNSEFADIFEEIREKYGVK
notes: codon-optimised gene in pET29a(+), C-terminal His6 tag, expressed in E. coli NEB T7 Express

How the values were obtained:
[1] = molecular target: Bacillus megaterium SqvB (DUF4867 family member) (Bacillus megaterium); experiment: SEC-MALS; SEC-MALLS; 100 ul injected at 2.7 mg/mL; running buffer 50 mM Tris pH 7.5, 300 mM NaCl; room temperature (20 ± 2 °C)
[2] = substrate: O=[N+]([O-])c1ccc(O[C@H]2O[C@H](CS(=O)(=O)O)[C@@H](O)[C@H](O)[C@H]2O)cc1; experiment: purified protein; assay type: biochemical, Agathobacter rectalis; settings: PBS (50 mM sodium phosphate, 150 mM NaCl), pH 6.5, 30 °C

Molecule	stoichiometry N [1]	Km [2]	kcat [2]	kcat/Km [2]
Bacillus megaterium SqvB (DUF4867 family member) (natural protein)	2	–	–	–
B1	–	478 ± 30 µM	78.8 ± 3.9 s⁻¹	165000 ± 18000 M⁻¹ s⁻¹
